Source: the supplement of paper PMC7877785
± gives the uncertainty stated by the source.

Experiment: self-splicing fitness, log relative to wild type (ln ratio); higher = more splicing; Tetrahymena group I intron in knt gene, E. coli kanamycin selection, DiMSum; sequences stand for … in CUCUCU…GGAGGGAAAAGUUAUCAGGCAUGCACCUGGUAGCUAGUCUUUAAACCAAUAGAUUGCAUCGGUUUAAAAGGCAAGACCGUCAAAUUGCGGGAAAGGGGUCAACAGCCGUUCAGUACCAAGUCUCAGGGGAAACUUUGAGAUGGCCUUGCAAAGGGUAUGGUAAUAAGCUGACGGACAUGGUCCUAACCACGCAGCCAAGUCCUAAGUCAACAGAUCUUCUGUUGAUAUGGAUGCAGUUCACAGACUAAAUGUCGGUCGGGGAAGAUGUAUUCUUCUCAUAAGAUAUAGUCGGACCUCUCCUUAAUGGGAGCUAGCGGAUGAAGUGAUGCAACACUGGAGCCGCUGGGAACUAAUUUGUAUGCGAAAGUAUAUUGAUUAGUUUUGGAGUACUCGUGGUCG
Procedure, shortened: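 A randomised library covering all eight P1ex-region intron nucleotides was built with the intron in the knt kanamycin-resistance gene on pET-22b(+) and held in E. coli BL21(DE3). Cells were grown overnight at 37°C or 30°C on LB agar, with or without 25 μg/mL kanamycin, plus 100 μg/mL carbenicillin, 50 μM IPTG and 0.2% rhamnose, and pooled colonies were amplicon-sequenced on an Illumina HiSeq 2500. DiMSum fitness is the error-weighted combination of wild-type-normalised replicate fold changes, kanamycin versus none.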

Sequence | self-splicing fitness (ln) (30 °C) | self-splicing fitness (ln) (37 °C)
UUGAAGCAAUAUUACGUCUC | -3.24 ± 0.28 | -1.28 ± 0.23
UUGAAGCAAUAUUACGUGAG | -0.592 ± 0.067 | -0.805 ± 0.093
UUGAAGCAAUAUUACGUGCC | -2.27 ± 0.15 | -0.402 ± 0.16
UUGAAGCAAUAUUACGUGCG | -0.232 ± 0.063 | -0.131 ± 0.078
UUGAAGCAAUAUUACGUGCU | -3.06 ± 0.17 | -1.97 ± 0.16
UUGAAGCAAUAUUACGUGGU | -3.78 ± 0.25 | -2.94 ± 0.34
UUGCAGCAAUAUUACGACAG | -0.32 ± 0.11 | 0.414 ± 0.15
UUGCAGCAAUAUUACGACCA | -1.8 ± 0.24 | -0.0142 ± 0.18
UUGCAGCAAUAUUACGAGGA | -2.08 ± 0.18 | -0.954 ± 0.14
UUGCAGCAAUAUUACGAGGG | -2.78 ± 0.15 | -0.707 ± 0.15
UUGCAGCAAUAUUACGCAAA | -1.35 ± 0.21 | -2.35 ± 0.39
UUGCAGCAAUAUUACGCAGG | -3.72 ± 0.25 | -2.68 ± 0.25
UUGCAGCAAUAUUACGCCAA | -1.25 ± 0.19 | 0.228 ± 0.24
UUGCAGCAAUAUUACGCGAG | -3.18 ± 0.12 | -1.73 ± 0.12
UUGCAGCAAUAUUACGGAUG | -2.29 ± 0.085 | -1.21 ± 0.1
UUGCAGCAAUAUUACGGAUU | -2.96 ± 0.23 | -2.91 ± 0.33
UUGCAGCAAUAUUACGGCCC | -1.83 ± 0.31 | -0.271 ± 0.47
UUGCAGCAAUAUUACGGCCG | -1.21 ± 0.096 | -0.459 ± 0.12
UUGCAGCAAUAUUACGGGAC | -3.01 ± 0.25 | -2.37 ± 0.39
UUGCAGCAAUAUUACGGGCC | -3.8 ± 0.22 | -2.3 ± 0.17
UUGCAGCAAUAUUACGUAAU | -2.83 ± 0.098 | -2.24 ± 0.14
UUGCAGCAAUAUUACGUCCG | -1.24 ± 0.1 | 0.0449 ± 0.14
UUGCAGCAAUAUUACGUGUA | -1.52 ± 0.11 | -1.07 ± 0.1
UUGCAGCAAUAUUACGUGUG | -2.1 ± 0.087 | -1.68 ± 0.12
UUGGAGCAAUAUUACGAAAC | – | -2.22 ± 0.37

Sequence | self-splicing fitness (ln) (30 °C) | self-splicing fitness (ln) (37 °C)
UUGGAGCAAUAUUACGCAAG | -1.51 ± 0.22 | -2.65 ± 0.44
UUGGAGCAAUAUUACGCAGU | -1.93 ± 0.34 | -2.84 ± 0.48
UUGGAGCAAUAUUACGCUCU | -4.19 ± 0.39 | –
UUGGAGCAAUAUUACGCUUA | -2.03 ± 0.16 | -2.35 ± 0.23
UUGGAGCAAUAUUACGCUUC | -3.11 ± 0.34 | -0.757 ± 0.28
UUGGAGCAAUAUUACGGAGC | -1.47 ± 0.38 | –
UUGGAGCAAUAUUACGGCAA | -0.805 ± 0.23 | -0.671 ± 0.32
UUGGAGCAAUAUUACGGCAU | – | -1.76 ± 0.24
UUGGAGCAAUAUUACGGGAC | -4 ± 0.48 | -0.322 ± 0.34
UUGGAGCAAUAUUACGGUCU | -3.4 ± 0.49 | -2.45 ± 0.48
UUGGAGCAAUAUUACGGUGG | -3.06 ± 0.16 | -3.08 ± 0.23
UUGGAGCAAUAUUACGGUGU | -3.09 ± 0.32 | -1.64 ± 0.32
UUGGAGCAAUAUUACGUCAU | -3.84 ± 0.47 | -1.45 ± 0.34
UUGGAGCAAUAUUACGUCCG | -2.22 ± 0.29 | -1.27 ± 0.4
UUGGAGCAAUAUUACGUGCA | – | -1.94 ± 0.31
UUGGAGCAAUAUUACGUGGA | -2.9 ± 0.33 | -2.24 ± 0.25
UUGGAGCAAUAUUACGUUGU | -4.09 ± 0.36 | -1.77 ± 0.26
UUGUAGCAAUAUUACGAAAC | – | -2.66 ± 0.48
UUGUAGCAAUAUUACGAACG | -1.69 ± 0.31 | -0.376 ± 0.26
UUGUAGCAAUAUUACGAAGU | -2.54 ± 0.28 | -2.56 ± 0.48
UUGUAGCAAUAUUACGACGU | -1.48 ± 0.09 | -0.671 ± 0.12
UUGUAGCAAUAUUACGAGCA | -1.49 ± 0.24 | -0.799 ± 0.2
UUGUAGCAAUAUUACGAGCG | -1.01 ± 0.14 | -0.454 ± 0.28
UUGUAGCAAUAUUACGAUCG | -1.06 ± 0.14 | 0.103 ± 0.23
UUGUAGCAAUAUUACGAUCU | – | -2.38 ± 0.27

Sequence | self-splicing fitness (ln) (30 °C) | self-splicing fitness (ln) (37 °C)
UUGUAGCAAUAUUACGCACG | -1.14 ± 0.11 | -0.742 ± 0.13
UUGUAGCAAUAUUACGCAGG | -1.6 ± 0.24 | 0.28 ± 0.17
UUGUAGCAAUAUUACGCUAG | -2.06 ± 0.22 | -0.816 ± 0.21
UUGUAGCAAUAUUACGGGCU | -2.88 ± 0.29 | -1.62 ± 0.22
UUGUAGCAAUAUUACGGGGA | -1.98 ± 0.26 | -0.346 ± 0.17
UUGUAGCAAUAUUACGGGUG | -2.02 ± 0.11 | -0.808 ± 0.096
UUGUAGCAAUAUUACGGGUU | -4.7 ± 0.34 | -2.83 ± 0.3
UUGUAGCAAUAUUACGUAAA | -1.72 ± 0.22 | -0.0948 ± 0.21
UUGUAGCAAUAUUACGUGAU | -3.14 ± 0.17 | -1.01 ± 0.15
UUUAAGCAAUAUUACGACGU | -1.73 ± 0.15 | -0.17 ± 0.15
UUUAAGCAAUAUUACGAGUU | -2.48 ± 0.17 | -2.09 ± 0.17
UUUAAGCAAUAUUACGAUAG | -0.412 ± 0.096 | -0.23 ± 0.097
UUUAAGCAAUAUUACGAUCU | -1.05 ± 0.1 | -0.724 ± 0.13
UUUAAGCAAUAUUACGAUGU | -2.45 ± 0.14 | -1.96 ± 0.18
UUUAAGCAAUAUUACGCCGG | -0.192 ± 0.089 | 0.194 ± 0.11
UUUAAGCAAUAUUACGCCUU | -0.228 ± 0.34 | -1.35 ± 0.36
UUUAAGCAAUAUUACGCGAC | -2.4 ± 0.18 | -2.75 ± 0.22
UUUAAGCAAUAUUACGCGCG | 0.181 ± 0.12 | -0.26 ± 0.14
UUUAAGCAAUAUUACGCGGA | -1.6 ± 0.098 | -0.0901 ± 0.084
UUUAAGCAAUAUUACGCUUU | -3.6 ± 0.35 | -2.95 ± 0.23
UUUAAGCAAUAUUACGGAAA | -2.33 ± 0.23 | -0.53 ± 0.23
UUUAAGCAAUAUUACGGAGA | -2.18 ± 0.21 | -0.727 ± 0.17
UUUAAGCAAUAUUACGGGAG | -1.75 ± 0.089 | -1.32 ± 0.1
UUUAAGCAAUAUUACGGGGA | -1.27 ± 0.1 | -0.724 ± 0.11
UUUAAGCAAUAUUACGGUUC | -3.56 ± 0.21 | -2.47 ± 0.2

Sequence | self-splicing fitness (ln) (30 °C) | self-splicing fitness (ln) (37 °C)
UUUAAGCAAUAUUACGUAAC | -3.67 ± 0.29 | -2.17 ± 0.19
UUUAAGCAAUAUUACGUAGG | -0.802 ± 0.058 | -0.287 ± 0.086
UUUAAGCAAUAUUACGUAGU | -2.62 ± 0.13 | -2.13 ± 0.18
UUUAAGCAAUAUUACGUCCU | -1.82 ± 0.2 | -1.09 ± 0.15
UUUAAGCAAUAUUACGUGCG | -0.659 ± 0.088 | -0.486 ± 0.11
UUUAAGCAAUAUUACGUGCU | -3.09 ± 0.18 | -1.41 ± 0.15
UUUAAGCAAUAUUACGUGUU | -3.32 ± 0.2 | -2.57 ± 0.22
UUUAAGCAAUAUUACGUUGA | -2.17 ± 0.23 | -1.5 ± 0.2
UUUAAGCAAUAUUACGUUGU | -3.69 ± 0.25 | -2.2 ± 0.26
UUUCAGCAAUAUUACGAAAU | – | -2.26 ± 0.4
UUUCAGCAAUAUUACGACGG | -1.02 ± 0.11 | 0.205 ± 0.17
UUUCAGCAAUAUUACGAGAA | -1.92 ± 0.37 | -1.49 ± 0.24
UUUCAGCAAUAUUACGAGAC | -2.68 ± 0.36 | -3.57 ± 0.46
UUUCAGCAAUAUUACGAGAG | -1.8 ± 0.069 | -1.91 ± 0.088
UUUCAGCAAUAUUACGAGCU | – | -1.95 ± 0.5
UUUCAGCAAUAUUACGAUGA | -0.807 ± 0.081 | -0.285 ± 0.075
UUUCAGCAAUAUUACGCAUC | -2.79 ± 0.14 | -0.623 ± 0.11
UUUCAGCAAUAUUACGCCUC | – | -1.38 ± 0.41
UUUCAGCAAUAUUACGCGAA | -2.03 ± 0.14 | -1.21 ± 0.14
UUUCAGCAAUAUUACGCUAG | -0.789 ± 0.084 | -0.5 ± 0.1
UUUCAGCAAUAUUACGCUCG | 0.0268 ± 0.097 | 0.385 ± 0.15
UUUCAGCAAUAUUACGCUUA | -0.378 ± 0.086 | 0.0227 ± 0.12
UUUCAGCAAUAUUACGGACA | -0.569 ± 0.09 | -0.204 ± 0.1
